{"source": "patent US20190233528A1", "about": "(published 2019)", "key": {"[1]": {"target": "T1, recombinant biotinylated human CD70 protein (human) (UniProt P32970)", "T1 sequence (chain, biotinylated (site not stated))": "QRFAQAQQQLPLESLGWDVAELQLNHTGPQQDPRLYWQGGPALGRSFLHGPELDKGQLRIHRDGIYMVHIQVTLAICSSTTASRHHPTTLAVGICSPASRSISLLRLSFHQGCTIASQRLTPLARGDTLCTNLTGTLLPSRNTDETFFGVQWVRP", "test": "flow cytometry: CAR-transduced Jurkat cells incubated with recombinant biotinylated human CD70, streptavidin-PE; percent of cells binding"}, "[2]": {"target": "T2, human CD70 expressed on parental (WT) Jurkat cells (human, UniProt P32970 1-193)", "T2 sequence": "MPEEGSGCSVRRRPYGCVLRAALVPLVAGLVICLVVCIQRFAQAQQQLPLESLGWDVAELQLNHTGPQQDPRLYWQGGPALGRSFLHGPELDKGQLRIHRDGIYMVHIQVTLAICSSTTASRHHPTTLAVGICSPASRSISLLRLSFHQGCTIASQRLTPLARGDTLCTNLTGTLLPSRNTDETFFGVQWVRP", "test": "cell-based or functional assay"}, "[3]": {"target": "T3, recombinant biotinylated human CD70 protein (human, UniProt P32970 39-193, biotinylated (site not stated))", "T3 construct": "also called recombinant biotinylated hCD70 protein", "T3 sequence": "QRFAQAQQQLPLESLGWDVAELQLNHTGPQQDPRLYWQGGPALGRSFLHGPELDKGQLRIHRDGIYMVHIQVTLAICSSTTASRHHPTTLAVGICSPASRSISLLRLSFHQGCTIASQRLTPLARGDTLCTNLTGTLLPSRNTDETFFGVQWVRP", "test": "flow cytometry: CAR-transduced Jurkat cells incubated with recombinant biotinylated human CD70, streptavidin-PE; percent of cells binding", "protocol": "On Day 5, transduced cells were stained with human anti-CD69 antibody conjugated to PE-Cy7 and acquired on a flow cytometer to obtain percentage of CD69+ population for each CAR. […] Activation ratios (WT activation/KO activation) and protein binding were used to rank CARs.\nActivation ratio and protein binding of hybridoma CARs were determined in the Jurkat screen and used for in vitro characterization of CARs. Activation ratio was determined by calculating the ratio of the percentage of CD69 expression on WT Jurkat cells transduced with CD70 CAR (WT) to that on CD70 knockout Jurkat cells transduced with CD70 CAR (KO). A higher activation ratio indicates target-dependent activation. […] Protein binding values indicate the percentage of CD3+ CAR T cells that bind to human CD70 protein."}}, "data": [{"binder": "45F11 CD70-specific CAR (other) QVQLRGSGPGLVKPSETLSLTCTVSDDSISVYYWSWIRQPAGKGLEWIGRVYSSGNINYNPSLESRVTMSVDTSKSRFSLNLSSVTAADTAVYYCARGLDAFDIWGQGTMVTVSSGGGGSGGGGSGGGGSGGGGSEIVMTQSPATLSMSLGERATLSCRASQSVSSSLAWYQQKPGQAPRLLIYGASTRATGIPARFGGSGSGTEFTLTISSLQSEDFAVYYCQQYINWPHFGGGTKVEIKTTTPAPRPPTPAPTIASQPLSLRPEACRPAAGGAVHTRGLDFACDIYIWAPLAGTCGVLLLSLVITLYCKRGRKKLLYIFKQPFMRPVQTTQEEDGCSCRFPEEEEGGCELRVKFSRSADAPAYQQGQNQLYNELNLGRREEYDVLDKRRGRDPEMGGKPRRKNPQEGLYNELQKDKMAEAYSEIGMKGERRRGKGHDGLYQGLSTATKDTYDALHMQALPPR", "values": [{"measurement": "Protein binding (%)", "setting": "[1]", "result": 1.29, "unit": "%"}, {"measurement": "Activation ratio (WT/KO)", "setting": "[2]", "result": 6.67}]}, {"binder": "64F9 CD70-specific CAR (other, Chimeric antigen receptor on transduced Jurkat cells; the signal peptide is left out) EVQLLESGGGLVQPGESLRLSCEVSGFTFTSYAMSWVRQVPGKGLEWVSIISGVAFTTYYADSVKGRFTISRDHSKNTLYLQMNGLRAEDTAVYYCVKVDGEVYWGQGTLVTVSSGGGGSGGGGSGGGGSGGGGSDIQMTQSPSSLSASVGDRVTITCQASQDISNYLNWYQQKPGKAPKILIYGASNLETGVPSRFSGSGSGTDFTFAISSLQPEDVATYYCQQYDNFPITFGQGTRLEIKTTTPAPRPPTPAPTIASQPLSLRPEACRPAAGGAVHTRGLDFACDIYIWAPLAGTCGVLLLSLVITLYCKRGRKKLLYIFKQPFMRPVQTTQEEDGCSCRFPEEEEGGCELRVKFSRSADAPAYQQGQNQLYNELNLGRREEYDVLDKRRGRDPEMGGKPRRKNPQEGLYNELQKDKMAEAYSEIGMKGERRRGKGHDGLYQGLSTATKDTYDALHMQALPPR", "values": [{"measurement": "Protein binding (%)", "setting": "[3]", "result": 6.24, "unit": "%"}, {"measurement": "Activation ratio (WT/KO)", "setting": "[2]", "result": 3.89}]}, {"binder": "42C3 CD70-specific CAR (other) EVQLVESGGGLVQPGGSLRLSCAASGFTFRNSWMSWVRQAPGKGLEWVANIKRDGSEKYYVDSVKGRFTISRDNAKNSLYLQMNSLRAEDTAVYYCARDQTGSFDYWGQGTLVTVSSGGGGSGGGGSGGGGSGGGGSDVVMTQSPLSLPVTLGQPASISCRSSQSLVYSDENTYLNWFQQRPGQSLRRLIYQVSNRDSGVPDRFSGSGSGTDFTLKISRVEAEDVGVYFCMQGTYWPPTFGGGTKVEIKTTTPAPRPPTPAPTIASQPLSLRPEACRPAAGGAVHTRGLDFACDIYIWAPLAGTCGVLLLSLVITLYCKRGRKKLLYIFKQPFMRPVQTTQEEDGCSCRFPEEEEGGCELRVKFSRSADAPAYQQGQNQLYNELNLGRREEYDVLDKRRGRDPEMGGKPRRKNPQEGLYNELQKDKMAEAYSEIGMKGERRRGKGHDGLYQGLSTATKDTYDALHMQALPPR", "values": [{"measurement": "Protein binding (%)", "setting": "[1]", "result": 1.48, "unit": "%"}, {"measurement": "Activation ratio (WT/KO)", "setting": "[2]", "result": 5.25}]}, {"binder": "4F11 CD70-specific CAR (other, Chimeric antigen receptor on transduced Jurkat cells; the signal peptide is left out) QVTLKESGPVLVKPTETLTLTCTVSGFSLSNARMGVTWIRQPPGKALEWLAHIFSNDEKSYSTSLKSRLTISKDTSKTQVVLTMTNMDPVDTATYYCARIRDYYDISSYYDYWGQGTLVSVSSGGGGSGGGGSGGGGSGGGGSDIQMTQSPSAMSASVGDRVTITCRASQDISNYLAWFQQKPGKVPKRLIYAASSLQSGVPSRFSGSGSGTEFTLTISSLLPEDFATYYCLQLNSFPFTFGGGTKVEINTTTPAPRPPTPAPTIASQPLSLRPEACRPAAGGAVHTRGLDFACDIYIWAPLAGTCGVLLLSLVITLYCKRGRKKLLYIFKQPFMRPVQTTQEEDGCSCRFPEEEEGGCELRVKFSRSADAPAYQQGQNQLYNELNLGRREEYDVLDKRRGRDPEMGGKPRRKNPQEGLYNELQKDKMAEAYSEIGMKGERRRGKGHDGLYQGLSTATKDTYDALHMQALPPR", "values": [{"measurement": "Protein binding (%)", "setting": "[3]", "result": 47.1, "unit": "%"}, {"measurement": "Activation ratio (WT/KO)", "setting": "[2]", "result": 11.9}]}]}
